Results from PMC6748948, “A Bone Morphogenetic Protein (BMP)-derived Peptide Based on the Type I Receptor-binding Site Modifies Cell-type Dependent BMP Signalling” (Scientific Reports, 2019).

Molecular target: Peptide P3* (BMP9-based peptide from the ALK1-binding site, biotinylated at the N-terminus) (UniProt Q9UK05)
Assay: SPR; Biacore T200; biotinylated P3* immobilised on streptavidin (SA) chip; ALK1-Fc flowed over, injection 4 min, otherwise as for the CM5 assays; steady-state fit

Chain of ALK1-Fc (activin receptor like kinase 1, Fc fusion) (P37023 22-118): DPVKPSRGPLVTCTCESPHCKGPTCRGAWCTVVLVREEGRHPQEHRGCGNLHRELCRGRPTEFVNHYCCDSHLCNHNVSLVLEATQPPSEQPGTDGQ
Chain of Peptide P3* (BMP9-based peptide from the ALK1-binding site, biotinylated at the N-terminus) (Q9UK05 320-429): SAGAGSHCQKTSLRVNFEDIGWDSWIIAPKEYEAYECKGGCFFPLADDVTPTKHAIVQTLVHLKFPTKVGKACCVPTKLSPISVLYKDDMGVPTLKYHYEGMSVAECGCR

Substance: ALK1-Fc (activin receptor like kinase 1, Fc fusion) (from UniProt P37023 22-118)
- Kd: 30 mM
